{"source": "the DeepSol protein solubility set", "data": [{"assay": "soluble on expression in E. coli; label from the status in PepcDB or PDB records", "values": [{"sequence": "MGSDKIHHHHHHMKALVEDDLFSKIGLDDVNSGVYDGEWVKPSGKMLTVKSPIDGSEVAKISLATRADYDRLVSRAIEEFKKWRMIPAPKRGLIIREIGDELRKEKKNLGKIVTIEAGKTPSEGEGEIQEMIDISDLALGLSRQLYGLTIASERPYHRMYEQWVPLGPVAVITSFNFPASVWSWNAFIAAVDGDVVIWKPSSKAALTAVAVMKVIERVLKRNNAPNIFFLMVSSGSEGGDWITNDPRIPLVSFTGSVPVGKKISENVAKRLGKSILELGGNNGAIVSDKADIDLALRGVVFGALATAGQRCTTTRRVIVQEKIYDQFLEKLKNAYSTIKVGDPREKGVLVGPLIDEDAVKDYEHAIDLAIKQGGKLIFGGKRITIKGLEGGHYVMPTIIEAKPDMPIVKEETFASILYVMKYRTIEEAIEIHNSVPQGLSSSIFTTDLREEEAFLSPYGSDCGLANVNTSTAGAEIGGAFGGEKDTGGGRESGSDAWKYYMRRQTVTKNWGQTLPLAQDVVFEF", "soluble on expression in E. coli": "not soluble"}, {"sequence": "MGSDKIHHHHHHMKCVVCGKNEAVEHGVCSQCLFDRANIENIGNVNIAICPKCGSVRIGKKWYREDYADHLLPLIMDEVKCSDPEAKISGDPKSVYFDESNRNLVLKVNITRDHMDPKVQTVSVPYSVNYISCPTCNKLTGSYFEATIQLRTVSTKYDEILSEVLDSIEKIMEKRRKMDASSFISKIERKPEGVDIYLGKKGDGDLVSSFILDHYFATLIVSKSLAGVKEGRKFFRFTYSLRILDAPEGAIVSVDKRKYILTAIRNRHIDVIDVETEERGRINRNVFFSNDGKIVTKEPQVKNFIVISRTEDESQIMDSQTFKIITIKGRAEGNEIRVFTYRGKYFI", "soluble on expression in E. coli": "not soluble"}, {"sequence": "MGSDKIHHHHHHMKEIPGLVKKAQIDKHDLTWLEESEVDDRVQQRRYGTTQAAELAGISVGLLYAAEQDGRLPEPEYRSDTARKVRAGYTINHINHMQRVFNTAPRKPEGSSAAIAGILNLKGGSQKTTTCHLFSQYLAIRGYRCLLLDTDPQGSLSFYFGKRPDDNVHYENTVAPFFLEDDEALVEAGHPEGASRSLHYAIQKTYWDNIDIIPACLQNLNIDLLMPSVMNEANVPMLDRIMKLRNGLLEVGENYDFIIIDGTPSLNLSTLNVVSACDVCFVPTPAAMLDFASTLQFAGLVAETAEMYKQEKMYPNIPDMRYFITKYSGSSYAHFMGQIIRRVFTVERGDVLSTEAHASDEIGKANTSTYSIYEKNPAESDNRKRLKKTIEMFDRLFEEMHDAVWETCFEDALRSSHLDKIDEIMSSADLARDDLKRANRLSDKEA", "soluble on expression in E. coli": "not soluble"}, {"sequence": "MGSDKIHHHHHHMKEIRIILMGTGNVGLNVLRIIDASNRRRSAFSIKVVGVSDSRSYASGRNLDISSIISNKEKTGRISDRAFSGPEDLMGEAADLLVDCTPASRDGVREYSLYRMAFESGMNVVTANKSGLANKWHDIMDSANQNSKYIRYEATVAGGVPLFSVLDYSILPSKVKRFRGIVSSTINYVIRNMANGRSLRDVVDDAIKKGIAESNPQDDLNGLDAARKSVILVNHIFGTEYTLNDVEYSGVDERSYNANDRLVTEVYVDDRRPVAVSRIISLNKDDFLMSIGMDGLGYQIETDSNGTVNVSDIYDGPYETAGAVVNDILLLSKVQK", "soluble on expression in E. coli": "not soluble"}, {"sequence": "MGSDKIHHHHHHMKETDNLLRENSHDRDISEIVATITALDHPSPSLLRFTAFVPGSANNPVWAEANVAIRLYLSEEFDDATRVYTVRSFDAATESIVVDVVQHHHESPMMRWSDTVKINDTLVLTGPRPHFVIPEGEQAALFLDDTAIPALAAILDQWPTDLRGKGWVVTDDPAAFDELPSIDGLELNLLAPGSDPTVQPLAQQAYDLENPETYVVWAAGERDEIKSIRRHFRKQVGLEKDAVAVFGYWKYNTTNTQIDAVRKENYMKMLSEGLQLENFDDLSLEI", "soluble on expression in E. coli": "not soluble"}, {"sequence": "MGSDKIHHHHHHMKFCIIGYPVRHSISPRLYNEYFKRAGMNHSYGMEEIPPESFDTEIRRILEEYDGFNATIPHKERVMRYVEPSEDAQRIKAVNCVFRGKGYNTDWVGVVKSLEGVEVKEPVVVVGAGGAARAVIYALLQMGVKDIWVVNRTIERAKALDFPVKIFSLDQLDEVVKKAKSLFNTTSVGMKGEELPVSDDSLKNLSLVYDVIYFDTPLVVKARKLGVKHIIKGNLMFYYQAMENLKIWGIYDEEVFKEVFGEVLK", "soluble on expression in E. coli": "not soluble"}, {"sequence": "MGSDKIHHHHHHMKFIVTPDIFEKLPDMYVGVVVAKGIDNSKNYPEIDRLLNRYMKYSQQKFDGINVKQNDEIIPYREAFRKIGINPNRYPCSAEALFKRLSKGKNLPHINPLVNLNNAISLKYTVLMGTHSLDGVQDDIIMRLTKSGDNFVPLGKDEVEEPDEGEVVYAVGSDVCIRRWTWRQSEHSKITDQTHDVFFPIDGFVDVNRDAVDKAREDLVGKSKEIFGVETQVGYVDKNHPEFEWE", "soluble on expression in E. coli": "not soluble"}]}]}
